From US20260209348A1 (University of California, published 2026)

Target: human ROR2 (human, UniProt Q01974 34-403, limits assumed)
Experiment: SPR

Chain of human ROR2 (Q01974 34-403 limits assumed): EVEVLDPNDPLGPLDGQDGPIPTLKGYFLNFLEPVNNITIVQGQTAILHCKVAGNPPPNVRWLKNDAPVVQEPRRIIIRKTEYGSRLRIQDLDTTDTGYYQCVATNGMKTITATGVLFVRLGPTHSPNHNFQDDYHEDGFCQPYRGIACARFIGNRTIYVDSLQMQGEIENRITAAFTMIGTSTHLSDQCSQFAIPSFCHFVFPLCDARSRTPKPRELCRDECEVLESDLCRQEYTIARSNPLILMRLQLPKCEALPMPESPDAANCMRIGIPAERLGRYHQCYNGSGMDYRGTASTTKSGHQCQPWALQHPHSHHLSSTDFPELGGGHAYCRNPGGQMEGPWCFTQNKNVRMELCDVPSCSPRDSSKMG

Binder | Kd [nM] | binding result
grafted humanized 6E6: VH3-11*03 (extended) + VK1-8*01 (IMGT) (antibody, V domains shown, expressed as IgG) VH: QVQLLESGGGLVKPGGSLRLSCAASGFTFSNYGMSWIRQAPGKGLEWVSTISSGGGYTHYVDSVKGRFTISRDNAKNSLYLQMNSLRAEDTAVYYCARHPRDFSYAMDYWGQGTTVTVSS VL: AIRMTQSPSSFSASTGDRVTITCRASQDVGHYLAWYQQKPGKAPKLLIYWASTLQSGVPSRFSGSGSGTDFTLTISCLQSEDFATYYCQQYNIYPWTFGQGTKVEIK | 1.1 | –
grafted humanized 6E6: VH3-11*03 (extended) + VK1-12*01 (IMGT) (antibody, V domains shown, expressed as IgG) VH: QVQLLESGGGLVKPGGSLRLSCAASGFTFSNYGMSWIRQAPGKGLEWVSTISSGGGYTHYVDSVKGRFTISRDNAKNSLYLQMNSLRAEDTAVYYCARHPRDFSYAMDYWGQGTTVTVSS VL: DIQMTQSPSSVSASVGDRVTITCRASQDVGHYLAWYQQKPGKAPKLLIYWASSLQSGVPSRFSGSGSGTDFTLTISSLQPEDFATYYCQQYNIYPWTFGQGTKVEIK | – | no binding
grafted humanized 6E6: VH3-21*01 (extended) + VK1-12*01 (extended) (antibody, V domains shown, expressed as IgG) VH: EVQLVESGGGLVKPGGSLRLSCAASGFTFSNYGMSWVRQAPGKGLEWVSTISSGGGYTHYVDSVKGRFTISRDNAKNSLYLQMNSLRAEDTAVYYCARHPRDFSYAMDYWGQGTTVTVSS VL: DIQMTQSPSSVSASVGDRVTITCKASQDVGHYVAWYQQKPGKAPKLLIYWASTRHTGVPSRFSGSGSGTDFTLTISSLQPEDFATYYCQQYNIYPWTFGQGTKVEIK | 0.67 | –
grafted humanized 6E6: VH3-21*01 (extended) + VK1-8*01 (IMGT) (antibody, V domains shown, expressed as IgG) VH: EVQLVESGGGLVKPGGSLRLSCAASGFTFSNYGMSWVRQAPGKGLEWVSTISSGGGYTHYVDSVKGRFTISRDNAKNSLYLQMNSLRAEDTAVYYCARHPRDFSYAMDYWGQGTTVTVSS VL: AIRMTQSPSSFSASTGDRVTITCRASQDVGHYLAWYQQKPGKAPKLLIYWASTLQSGVPSRFSGSGSGTDFTLTISCLQSEDFATYYCQQYNIYPWTFGQGTKVEIK | 10 | –
grafted humanized 6E6: VH3-11*03 (extended) + VK1-12*01 (extended) (antibody, V domains shown, expressed as IgG) VH: QVQLLESGGGLVKPGGSLRLSCAASGFTFSNYGMSWIRQAPGKGLEWVSTISSGGGYTHYVDSVKGRFTISRDNAKNSLYLQMNSLRAEDTAVYYCARHPRDFSYAMDYWGQGTTVTVSS VL: DIQMTQSPSSVSASVGDRVTITCKASQDVGHYVAWYQQKPGKAPKLLIYWASTRHTGVPSRFSGSGSGTDFTLTISSLQPEDFATYYCQQYNIYPWTFGQGTKVEIK | 2.1 | –

Continued, values first:

Kd [nM] | binding result | Binder
– | no binding | grafted humanized 6E6: VH3-21*01 (IMGT) + VK1-12*01 (IMGT) (antibody, V domains shown, expressed as IgG) VH: EVQLVESGGGLVKPGGSLRLSCAASGFTFSNYGMNWVRQAPGKGLEWVSSISSGGGYTYYADSVKGRFTISRDNAKNSLYLQMNSLRAEDTAVYYCARHPRDFSYAMDYWGQGTTVTVSS VL: DIQMTQSPSSVSASVGDRVTITCRASQDVGHYLAWYQQKPGKAPKLLIYWASSLQSGVPSRFSGSGSGTDFTLTISSLQPEDFATYYCQQYNIYPWTFGQGTKVEIK
– | no binding | grafted humanized 6E6: VH3-21*01 (IMGT) + VK1-8*01 (IMGT) (antibody, V domains shown, expressed as IgG) VH: EVQLVESGGGLVKPGGSLRLSCAASGFTFSNYGMNWVRQAPGKGLEWVSSISSGGGYTYYADSVKGRFTISRDNAKNSLYLQMNSLRAEDTAVYYCARHPRDFSYAMDYWGQGTTVTVSS VL: AIRMTQSPSSFSASTGDRVTITCRASQDVGHYLAWYQQKPGKAPKLLIYWASTLQSGVPSRFSGSGSGTDFTLTISCLQSEDFATYYCQQYNIYPWTFGQGTKVEIK
– | no binding | grafted humanized 6E6: VH3-21*01 (IMGT) + VK1-12*01 (extended) (antibody, V domains shown, expressed as IgG) VH: EVQLVESGGGLVKPGGSLRLSCAASGFTFSNYGMNWVRQAPGKGLEWVSSISSGGGYTYYADSVKGRFTISRDNAKNSLYLQMNSLRAEDTAVYYCARHPRDFSYAMDYWGQGTTVTVSS VL: DIQMTQSPSSVSASVGDRVTITCKASQDVGHYVAWYQQKPGKAPKLLIYWASTRHTGVPSRFSGSGSGTDFTLTISSLQPEDFATYYCQQYNIYPWTFGQGTKVEIK
